Test results reported in the nanobody polyreactivity screen of Harvey et al. (2022).

Assay: yeast display, Sf9 membrane polyspecificity reagent, FACS + sequencing; frameworks hold sequencing errors
How it was run: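 Using colony PCR, genes from sorted yeast display clones were amplified, then sequenced on MiSeq at 2 × 250 and filtered by CDR length. The clones had been stained with 10% biotinylated, detergent-solubilized Sf9 membrane reagent for 1 hour at 4 °C and sorted by FACS into low and high (top ~1%) gates on anti-HA and streptavidin fluorescence. Polyreactivity labels come from the gate of origin.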

Row | Sequence | polyreactivity (PSR sort gate)
1 | QVQLVESGGGLVQAGGSLRLSCAASGRTSGKNAMGSYRQATRKEREMVAAISSSGGSTYYADSVKGRFTISRDNAKNTVYLQMNSLKPEDTAVYYCAAKYFRKYSQIGPDMYYWGQGTQVTVSS | high polyreactivity
2 | QVQLQESGGGLVQAGGCLRLRCAASRNISGSSDLGWYHQAPGKEREFVASMTSGGTTYYADSVKGRFTISRDNAKYTVYLQMKSQKTEDTAVYYCAVGDPADAEFGYWGQGTQVTVSS | low polyreactivity
3 | QVQLVESGGGLVQAGGSLRLSCAASGITFRSYEMGWYRAAPAKERELVAAISSGGSRTYYADSVKGRYTISRDNAKKTVYLQMNSLKPEDTAVYYCAATDRSDVYKGAYYYWGQGTQVTVSS | high polyreactivity
4 | QVQLVESGGGLVQAGGSLRLSCAASGSILESNVMGWYRQAPGKERELVASISSSGDSTYADSVKGRFTISRDNAKNTVYLQMNSLKPEDTAVYYCAADAPGADFDYWGQGTQVTVSS | low polyreactivity
5 | QVQLVESGGGLVQAGGSLRLSGAASGSTFYSYAMGWYRQAPGKERELVAAISGSGASTYYADSVKGSFTISRDNAKNTVYLLMNSLKPEETAVYYCAADKPGIFSRFDYWGQGTQVTVSS | low polyreactivity
6 | QVQLVESGGGLVQAGGSLRLSCAASGFTFGWYDMGWYRKATGKERELVASISWSGSSTYYADSVKGRFTISRDNAKNTVYLQMNSLKPEDTAVYYCATPYWRRYDYWGQGTQVTVSS | high polyreactivity
7 | QVQLVESGGGLVQAGGSLRLSCAASGRTLLKNAMGWYRQAPGKEREFVAAITYSSGSTYYADSVKGRFTISRDNAKNTVYLQMNSLKPEDTAVYYCAKTNFSQSSRYNYDYWGQGTQVTVSS | low polyreactivity
8 | QVQLVESGGGIVQAGGSLRLSCAASGRIFGYYAMGWYIQAPGNERELVASISSSGGSTYYADSVKGRFTISRDNAKNTVYLQMKSLKPEDTAVYYCNTASNRYQGWRAEFDYWGQGSQVTVSS | low polyreactivity
9 | QVQLVESGGGLVQAGGSLRLSCAASGLTFTYNAMGGYRQAPGKERELVAAITSGGNTNYADSVKGRFTISRDNAKNTVYLQMKSLKPEDTAVYYCATDRKNGISGRYGYWGQGTQVTVSS | low polyreactivity
10 | QVQLVESGGGLVQAGGSLRLSCAASGFTFWLYAMGWYRQATGKERELVAAIDWDGGTYYADSVKGRFTISRDNAKNTVYLQMNSLKPEDTAVYYCAARYRYYYTRYDYWGQGTQVTVSS | high polyreactivity
11 | QVQLGESGGGLVQAGGSLRLSCAASGITFWSYAMGLYRQAPGKERELVATIRWSGGGTYYADSVKGRFTISRDNAKNTVYLQMNSLKPEDTAVYYCNADDYGHPPYDYWGQGTQVTVSS | high polyreactivity
12 | QVQLVESGGGLVQAGGSLRLSCAASGSTFGFYAMGWYRQAPGKERELVAAISRGGSTNYADSVKGRFTISRDNAKNTVYLQMNSLKPEDTAVYYCAKAYHATSDYWGQGTQVTVSS | low polyreactivity
13 | QVQLVESGGGLVQAGGSLRLSCAASGRTFYNAMGWYRPAPGKERELVAAITTGGGTKYADSVKGRCTISRDNAKNTVYLQMNSLKPEDTAVYYCNTDEWYHFYHGAHKYDYWGQGTQVTVSS | low polyreactivity
14 | QVQLVESGGGLDQAGGSLRLSCAASARTFTYYAMGWYRQAPGKERELVAAIRWTGDSTYYADSVKGRFTISRDYAKNTVYLQMNSLKPEDTAVYYCAKQARWQYDGGIRWYYYWGQGTQVTVSS | high polyreactivity
15 | QVQLVESGGGLVQAGGSLRLSCAASGIIFQAYAMGWYRQAPGKERELVAAISYSGGSTYYADSVKGRFTISRDNAKNTVYLQMNCLKPEDTAVYYCAATFYGYFDSVFSWGYYYWGQGTQVTVSS | low polyreactivity
16 | QVQLVESGGGLVQAGGSLRLSCAASGISFYRYAMGWYRQAPGKERELVAAITGSGDSTYYADSVKGRFSISRDNAKNTVYLQMNSLKPEDTAVYYCNTDYGRRYDYWGQGTQVTVSS | high polyreactivity
17 | QVQLVESGGGLVQAGGSLRLSCAASGRIFSHYAMGWYRQAPGKERELVAAITWSGGRTYYADSVKGRFTISRDNAKNTVYLQMNSLKPEDTAVYYSAADREARYPVEYGYWGQGTQVTVSS | low polyreactivity
18 | QVQLEESGGGLVQAGGSLRLICAASGLTFPPNSMRWYRQATGKERELVADSGGSTNYADSVKGRFTISRDNAKNNVYLQMNSLKPEDTAVYYCAAPPYSDGQWDDYWGQGTQVTVSS | low polyreactivity
19 | QVQLEESGGGLVQAGGSLRLICAASGFIFLYYAMGWYRQAPGKERELVAAIDYSGGSTNYADSVKGRFTISRDNAKNTVYLQMHSLKPEDTAVYFFNAEYTWHRGYDYWGQGTQVTVSS | low polyreactivity
20 | QVQLVESGGGLVQAGGSLRLSCAASGSTFWYYAMGWSRQAPGKERELVAAIRRGGSTYYADSVKGRFTISRDNAKNTVYLQMNSLKPVDTAVYYCAAERPYKTFGYGYWGQGTQVTVSS | high polyreactivity
21 | QVQLVESGGGIVQAGGSLRLSCAASGSIFRYNVMGLYRQAPGKERELVAGITRIGGSTYYADSVKGRFTISRDNAKNTVYLQMNSLKQEDTAVYYCGTARFSYPGPFGWLDEYYYWGQGTQVTVSS | low polyreactivity
22 | QVQLVESGGGLVQAGGSLRLSCAASGFTLYVNAKGWYRQAPGKERELVAAISWSGGSTYYADSVKGRFTISRDNAKNTVYLQMNSLKPEDTAVYYCNAKYHRRLQWGTRYYYWGQGTQVTVSS | high polyreactivity

Row | Sequence | polyreactivity (PSR sort gate)
23 | QVQLVESGGGLVQAGGSLRLSCAASGSIFTFNSMGWYRQSPGKERELVAAIRWSSGRTYYADSVKGRFTISRDNAKNTVYLQMNSLKPEETAVYYCAAKDFGSFYDSGYDYWGQGTQVTVSS | high polyreactivity
24 | QVQLVESGGGLVQEGGSLRVSCAASGIIFSSYVMGWYRQAPGKERELVAAISKSGARTSYADSVKGRFTISRDNAKNTVYLQMNSLKPEDTAVYYCAATFRLERPTSKHPRYDYWGQGTQVTVST | low polyreactivity
25 | QVQLVESGGGLVQAGCSLRLSCAASGRTFGGNAMGWYRQAPGKERELVAAISKSGGRTYYADSVKGRFTISRDNAKNTVYLQMNSLKPEDTAVYYCNKVLSVSQAGGFDYWGQGTQVTVSS | high polyreactivity
26 | QVQLVESGGGLVQAGGSLRLSCAASGITISWYAMGWYRQAPGKERELVAAITRTAGTNYADSVKGRFTISRDNAKNTVYLQMNSLKPEDTAVYYCAAVGHGGLLYWRNYGYGYWGQGTQVTVSS | low polyreactivity
27 | QVQLVESGGGLVQAGGSLRLSCAASGIIFYEYVMGWYRQAPGKERELVAAINRSGGSTYYADSVKGRFTISRDNAKNTVYLQMNSLKPEDTAVYYCAASSTYDGRKYYYWGQGTQVTVSS | high polyreactivity
28 | QVPLVESGGGLVQAGGSLRLSCAASGLIFRTYTMGWYRQAPGKERELVATITRRGGTTYYADSVKGRFTLSRDNAKNTVYLQMNSLKPEDTAVYYCAKSPYYTWKYDYWGQGTQVTVSS | high polyreactivity
29 | QVQLVESGGGLVQAGGSLRLSCAASGLIFKFYAMGGYRQAAGKERELVARISSSGGSTYYADSVKGRFTISRDNAKNTVYLQMNSLKPEDTAVYYCAAGAYYVERYARSSIFSYYYWGQGTQVTVSS | high polyreactivity
30 | QVQLVESGGGLVQAGGSLRLSCAASGFTFITNAMGWYRQAPGKERELVASISIGGSTNYADSVKGRFTISRDNAKNTVYLQMNSLKPEDTAVYYCAARVYRRLFLPGRYGRPLGYWGQGTQVTVTS | high polyreactivity
31 | QVQLVESGAGLVQAGGSLRLSCAASGRTFIGNAMGWYRQAPGKERELVAAISSSGGNTYYADSVKGRFTISRDNAKNTVYLQMNSLKPEDTAVYYCAVEVRTFVTYGRREYYWGQGTQVTVSS | high polyreactivity
32 | QVQLVESGGGLVQAGGSLRLSCAASGRNYRYAMGWYRQAPGKEWALVAAISSGGRTNYADSVKGRFTISRDNAKNTVYLQMNSLKPEDTAVYYCAAEAPFYVKGRRYRGYDYWGQGTQVTVSS | high polyreactivity
33 | QVQLVESGAGLVQAGGSLRLSCAATGSIVDWYVMGWYRQAPGKERELVAAITSTGSTYYADSVKGRFTISRDNAKNPVYLQMNSLKPEDTAVYYCATSFYVYPTYYIMDYWGQGTQVTVSS | low polyreactivity
34 | QVQLVESGGGLVQAGGSLRLSCAASGRTFLPYAMGWYRQAPGKERELVAAIDSSGGSTYYADSVKGRFTISRDNAKNTVYLQMNSLKPEDTAVYYCAADLYSSSYLYDSWGQGTQVTVSS | low polyreactivity
35 | QVQLVESGGGLVQAGGSLRLSCAASGITFDENTMGWYRQGPGKERELVAAITEIGGSTYYADSVKGRFTISRDNAKNTVYLQMHSLKPEDTAVYYCNAARWVGRFVDYEYWGQGTQVTVSS | low polyreactivity
36 | QVQLVESGGGLVQAGGSLRLSCAASGSIFRLYAMGWYRQAPGKERELVAVISYSGGSTYYADSVKGRFTISRDNAKNTVYLQMNSLNPEDTAVYYCAARRRWYGIRNYYWGQGSQVTVSS | high polyreactivity
37 | QVQLVESGGGLVQAGGSLRLSCAASGRIFIPYAMAWYRQAPGNERELVAAISSSGGSTYYADSVKGRFTISRDNAKNTVYLQMNSLKPEDTAVYYCSALLYWWYAYETYSSLFEYDYWGQGTLVTVSS | low polyreactivity
38 | QVQLVESGGGLVQAGGSLRLSCAASGSTFYDYAMGWYRQAPGKERELVASISSGGGTYYADSVKGRFTISRDNAKNTVYLQMNSLKPEDTAVYYCADDDYSSYVYGTFDRYDYWGQGTQVTLSS | low polyreactivity
39 | QVQLVESGGGLVQAGGSLRLSCAASGRIFAWNDMGWYRQAPGKESELVAAITSGGSTYYADSVKGRFTISRDNAKNTVYLQMNCLKPEDTAVYYCAAGSAYYSQRYFAYGYDSWGQGTQVTVSS | low polyreactivity
40 | QVQLVESGGGLVQAGGSLRLSCAASGFTFRANAMGWYRQAPGKERELVAAISQSGGRTYYADSVKGRFTISRDNAKNTVYLQMNSLKPEDTAVYYCAAPYSAKELYYRMDYWGQGTQVTVSS | high polyreactivity
41 | QVQLVESGGGLVQAGGSLRLSCAASGSTFGINAMGWYRQSPGKERELVAAISSRGGRTYYADSVKGRFTISRDNAKNTVYLQMNSLKPEDTAVYYCNAVYGRVKGRGVGFKPQYDSWGQGTQVTVSS | high polyreactivity
42 | HVQLVESGGGLVQAGGSLRLSCAASGRISLFNAMGWYRQAPGKERELVAAITYTGGSTYYADSVKGRFTISRDNAKNTVYLQMNSLKPEDTAVYYCAAEYYYVYTYDYWGQGTQVTVSS | high polyreactivity
43 | QVQLVESGGGLVQAGGSLRLSCAASGRTFWGYALGWYRQAPGKERELVAAISSGGETTYADSVKGRFTISRDNAKNTVYLQMNSMKPEDTAVYYCAADRWITVYILGADGYDYWGQGTQVTVSS | low polyreactivity
